First the molecules themselves.
T1: c-mpl receptor (Homo sapiens (Human), UniProt P40238 26-491, The MPL used for panning was biotinylated; the biotin site is not stated and is not carried by the letters.)
T1 construct: also called TPO receptor
T1 sequence: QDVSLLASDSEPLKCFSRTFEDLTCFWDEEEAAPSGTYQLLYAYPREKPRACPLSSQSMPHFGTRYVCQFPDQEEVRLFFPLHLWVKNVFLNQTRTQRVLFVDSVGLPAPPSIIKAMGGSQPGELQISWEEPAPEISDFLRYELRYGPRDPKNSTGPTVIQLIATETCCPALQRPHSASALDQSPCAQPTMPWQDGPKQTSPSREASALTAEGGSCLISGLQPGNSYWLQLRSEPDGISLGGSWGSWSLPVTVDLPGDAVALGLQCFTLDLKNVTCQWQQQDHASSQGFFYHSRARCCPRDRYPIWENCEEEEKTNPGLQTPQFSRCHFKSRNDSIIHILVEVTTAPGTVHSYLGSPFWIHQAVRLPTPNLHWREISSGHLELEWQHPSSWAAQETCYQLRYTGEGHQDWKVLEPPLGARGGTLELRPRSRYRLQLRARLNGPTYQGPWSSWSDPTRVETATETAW

T2: human mpl receptor (human, UniProt P40238 26-635)
T2 sequence (looked up): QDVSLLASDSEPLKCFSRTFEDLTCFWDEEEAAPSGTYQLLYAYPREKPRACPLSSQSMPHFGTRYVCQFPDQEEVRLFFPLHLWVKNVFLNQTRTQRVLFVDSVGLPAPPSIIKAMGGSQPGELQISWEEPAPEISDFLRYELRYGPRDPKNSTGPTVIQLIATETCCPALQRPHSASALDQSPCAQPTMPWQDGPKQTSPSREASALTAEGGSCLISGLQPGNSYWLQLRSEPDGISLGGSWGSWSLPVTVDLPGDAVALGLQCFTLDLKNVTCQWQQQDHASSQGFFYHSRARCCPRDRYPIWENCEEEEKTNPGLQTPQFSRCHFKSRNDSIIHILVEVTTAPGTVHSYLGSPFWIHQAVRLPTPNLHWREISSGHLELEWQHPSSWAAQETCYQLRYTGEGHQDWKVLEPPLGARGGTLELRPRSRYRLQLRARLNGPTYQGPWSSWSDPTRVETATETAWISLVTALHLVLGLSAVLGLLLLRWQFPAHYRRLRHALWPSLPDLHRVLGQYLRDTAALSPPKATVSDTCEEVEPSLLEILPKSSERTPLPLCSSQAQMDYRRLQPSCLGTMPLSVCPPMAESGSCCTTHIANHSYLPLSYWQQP

B1: SEQ ID NO: 326 (peptide)
peptide: IEGNYWFWQQVGQENTLSREWIQTLGQKYWYRPPSICAQIEGWSRHQHYSAMSGHS
B2: Fc-Loop (Asym) (SEQ ID NO: 9) (Fc fusion)
chain: MDKTHTCPPCPAPELLGGPSVFLFPPKPKDTLMISRTPEVTCVVVDVSHEDPEVKFNWYVDGVEVHNAKTKPREEQYNSTYRVVSVLTVLHQDWLNGKEYKCKVSNKALPAPIEKTISKAKGQPREPQVYTLPPSRDELGGGGQGCSSGGPTLREWQQCRRMQHSGGTKNQVSLTCLVKGFYPSDIAVEWESNGQPENNYKTTPPVLDSDGSFFLYSKLTVDKSRWQQGNVFSCSVMHEALHNHYTQKSLSLSPGK
B3: Fc-Loop (Asym) (SEQ ID NO: 243) (Fc fusion)
chain: B2 chain with R160V
B4: Fc-Loop (Sym) (SEQ ID NO: 9) (Fc fusion)
chain: MDKTHTCPPCPAPELLGGPSVFLFPPKPKDTLMISRTPEVTCVVVDVSHEDPEVKFNWYVDGVEVHNAKTKPREEQYNSTYRVVSVLTVLHQDWLNGKEYKCKVSNKALPAPIEKTISKAKGQPREPQVYTLPPSRDELGGQGCSSGGPTLREWQQCRRMQHSGGTKNQVSLTCLVKGFYPSDIAVEWESNGQPENNYKTTPPVLDSDGSFFLYSKLTVDKSRWQQGNVFSCSVMHEALHNHYTQKSLSLSPGK
B5: Fc-Loop (Sym)(SEQ ID NO: 244) (Fc fusion)
chain: B4 chain with M160A
B6: Fc-Loop (Sym) (SEQ ID NO: 243) (Fc fusion)
chain: B4 chain with R158V

Positions count from the first letter of the chain named.

The target of one test is T1, c-mpl receptor. The test can be described thus: phage-ELISA.
For the molecule IEGWQEGRQSAARA [SEQ ID NO: 324], the Relative activity stood at 13.8.
Still for that read-out and setting: under IEGPTFKQWQRLRKNHS [SEQ ID NO: 329] stands 12.1.
On the same count and under the same terms, under IEGPTFKQWQAWRRWHS [SEQ ID NO: 315] stands 28.1; under IEVWQSHWYQAARALESTSSRLLPMRPPPSICAQIEGPTLPQRMAARA [SEQ ID NO: 316], 24.9.
Still for that read-out and setting: the figure for IEGPTLHEWLAERRKHS [SEQ ID NO: 332] is 88.4; for IEGLLSQLWQAARA [SEQ ID NO: 330] it is 7.11.
In the case of IEGPTFKQWQKWRLSHS [SEQ ID NO: 323], the Relative activity stood at 14.7.
On to IEGWTRRQWLAARA [SEQ ID NO: 311], for which the Relative activity stood at 33.3.
IEGPTFKQWQKLRLGHS [SEQ ID NO: 319]: the Relative activity came to 17.9.
Still for that read-out and setting: under IEGWNPWRGAASRV [SEQ ID NO: 310] stands 33.9.
Molecule IEGPTFKQWQRWLKYHS [SEQ ID NO: 325] registered a Relative activity of 13.5.
Molecule IEGPTLHEWLRQRRQHS [SEQ ID NO: 336] came in with a Relative activity of 64.5.
Still for that read-out and setting: the figure for IEGMVKLGVIRLLVL [SEQ ID NO: 314] is 28.3; for IEGPTLHEWLAQRREHS [SEQ ID NO: 334] it is 75.9; for IEGPTFKQWQAMRRHS [SEQ ID NO: 313] it is 28.4.
Same read-out and setting: under IEGPTFKQWQAMRKNHS [SEQ ID NO: 322] stands 16.4.
Still for that read-out and setting: under IEGPTLHEWLALLRSHS [SEQ ID NO: 333] stands 80.7.
IEGWIWRQWLMQTLWHS [SEQ ID NO: 321] gave a Relative activity of 16.4.
For the molecule IEGPTFKQWQALRKRHS [SEQ ID NO: 318], the Relative activity amounted to 21.6.
In the case of B1, the Relative activity is 13.2.
For IEGPTFKQWQLWRLQHS [SEQ ID NO: 327], the Relative activity was 12.6.
Still for that read-out and setting: under IEGPTFKQWQLMGFPHS [SEQ ID NO: 320] stands 17.8; under IEGPTLHEWLLYRRAHS [SEQ ID NO: 335], 73.7.
The same measure, in the same setting: under IEGPSLPEWLHVWRHHS [SEQ ID NO: 331] stands 117.

The next test addresses T2, human mpl receptor. The experiment in a line: cell-based or functional assay.
Consider B2, for which the “EC50 on 32Dc123/Mpl” value stood at 13 pM.
Turning to B3, the “EC50 on 32Dc123/Mpl” value was 6 pM.
Same read-out and setting: the figure for B4 is 15 pM.
Take B5: the “EC50 on 32Dc123/Mpl” value came out at 12 pM.
Turning to B6, the “EC50 on 32Dc123/Mpl” value was determined as 10 pM.

The next test addresses T2, human mpl receptor. The experiment in a line: cell-based or functional assay. The source holds these as a separate data set.
Take B2: the “In vitro EC50” value turned out to be 12.7 pM.
Still for that read-out and setting: under B3 stands 5.7 pM; under B4, 13.7 pM; under B6, 9.9 pM.
